For this assay, the target named is T1, CD6 lymphocyte surface receptor (human (endogenous in PBMC)) (UniProt P30203).
T1 sequence: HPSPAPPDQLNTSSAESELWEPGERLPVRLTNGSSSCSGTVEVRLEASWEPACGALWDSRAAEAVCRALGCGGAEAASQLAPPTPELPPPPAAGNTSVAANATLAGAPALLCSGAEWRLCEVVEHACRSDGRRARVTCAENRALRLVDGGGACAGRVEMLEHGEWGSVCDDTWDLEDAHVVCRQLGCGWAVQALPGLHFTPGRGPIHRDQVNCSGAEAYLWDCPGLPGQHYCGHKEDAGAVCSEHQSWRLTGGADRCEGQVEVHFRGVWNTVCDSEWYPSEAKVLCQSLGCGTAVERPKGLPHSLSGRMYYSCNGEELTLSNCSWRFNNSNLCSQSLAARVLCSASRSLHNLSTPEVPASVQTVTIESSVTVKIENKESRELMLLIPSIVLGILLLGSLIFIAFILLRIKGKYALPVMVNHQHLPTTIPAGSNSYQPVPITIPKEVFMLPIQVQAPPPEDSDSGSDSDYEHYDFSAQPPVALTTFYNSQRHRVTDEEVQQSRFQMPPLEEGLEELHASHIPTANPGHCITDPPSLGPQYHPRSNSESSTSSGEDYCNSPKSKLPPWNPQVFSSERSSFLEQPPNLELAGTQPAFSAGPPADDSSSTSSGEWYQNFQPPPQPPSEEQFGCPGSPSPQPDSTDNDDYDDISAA

B1: Recombinant Human ALCAM/CD166 Fc Chimera (Fc fusion)
chain: WYTVNSAYGDTIIIPCRLDVPQNLMFGKWKYEKPDGSPVFIAFRSSTKKSVQYDDVPEYKDRLNLSENYTLSISNARISDEKRFVCMLVTEDNVFEAPTIVKVFKQPSKPEIVSKALFLETEQLKKLGDCISEDSYPDGNITWYRNGKVLHPLEGAVVIIFKKEMDPVTQLYTMTSTLEYKTTKADIQMPFTCSVTYYGPSGQKTIHSEQAVFDIYYPTEQVTIQVLPPKNAIKEGDNITLKCLGNGNPPPEEFLFYLPGQPEGIRSSNTYTLTDVRRNATGDYKCSLIDKKSMIASTAITVHYLDLSLNPSGEVTRQIGDALPVSCTISASRNATVVWMKDNIRLRSSPSFSSLHYQDAGNYVCETALQEVEGLKKRESLTLIVEGKPQIKMTKKTDPSGLSKTIICHVEGFPKPAIQWTITGSGSVINQTEESPYINGRYYSKIIISPEENVTLTCTAENQLERTVNSLNVSAISIPEHDEADEISDENREKVNDQAK
Regarding B1, the tyrosine phosphorylation of CD6 immunoprecipitated from human PBMC plated on plate-bound ALCAM (immunoblot for p-Tyr) is more than 2.5 fold.

The record behind these values is article PMC5495335.
